Results as given in US10711246B2, “Methods and compositions for generating epicardium cells” (UNIVERSITY HEALTH NETWORK, priority 2013, dated 2020).
“Also recorded” adds a separate entry of the source.

How the values were obtained:
hESC-derived mesoderm [1] = experiment: Cardiomyocyte specification from hESC-derived day 4 mesoderm, cTnT+ cells at day 15 by flow cytometry; type: cell-based, human; settings: for cardiomyocyte development in presence of Wnt and activin/nodal/TGFβ inhibitor: specification step, contracting cTnT/SIRPA cells at day 15; for cardiomyocyte development / specification: added to day 4 mesoderm during specification step, high levels of BMP4 or inhibitors, analysed day 15
Method: FIG. 1. Cardiomyocyte specification from hESCs. Scheme of the protocol used to differentiate hESCs towards the cardiomyocyte lineage highlighting the three main stages of development: 1) mesoderm induction, 2) cardiovascular specification and 3) maturation. Cells from ActivinA/BMP4-induced day 4 embryoid bodies (EBs) are plated as a monolayer on gelatin coated wells. […] Following specification, the cultures were maintained in VEGF for 9 days and then analyzed for the presence of cTnT+ cardiomyocytes by flow cytometry. FIG. 2. […] (a) Flow cytometric analyses showing the presence of the KDR+ and PDGFRα+ populations at day 4 and day 5 and the cTnT+ expression on day 15 of culture following no treatment (control), treatment with BMP4 (10 ng/ml) or the BMP4 inhibitor Noggin (400 ng/ml). (b) Total cell numbers per well at day 15 in the cultures treated as above. Error bars represent standard deviation from the mean from three experiments. FIG. 3. […] Graphical representation of flow cytometry analyses indicating the percent cTnT^+ cells in day 15 cultures generated from populations treated with the indicated amounts of BMP4 or Noggin. NT=no treatment. Bars represent standard deviation from the mean of the values from three independent experiments (N=3); *P≤0.05, **P≤0.01 when compared to no treatment. FIG. 9. […] Error bars represent standard deviation from the mean of the values from three independent experiments (N=3); *P≤0.05, **P≤0.01 when compared to the ‘no Wnt treatment’ (NT) control in context of the indicated manipulation of the BMP pathway. (b) qRT-PCR-based analyses of WT1 expression on day 15 cultures generated from untreated cells (control) or cells treated with either BMP4 (10 ng/ml) or DM (4 μM) in combination with the indicated amounts of DKK or CHIR. Values are relative to the housekeeping gene TBP. Error bars represent standard deviation from the mean of the values from three independent experiments (N=3); *P≤0.05, **P≤0.01 when compared to the ‘no Wnt treatment’ (NT) control in the context of the indicated manipulation of the BMP pathway. (c) Flow cytometry analyses showing percent cTnT+ cells and qRT-PCR analyses for WT1 expression in day 15 cultures generated from untreated cells (control) or cells treated with either BMP4 (10 ng/ml) or DM (4 μM) in combination with the indicated amounts of XAV939 (XAV). Error bars represent standard deviation from the mean of the values from three independent experiments (N=3); *P≤0.05, **P≤0.01 when compared to no Wnt treatment (see FIGS. 9a and 9b) in the context of the specific BMP treatment. (d) Flow cytometry analyses showing percent cTnT+ cells and qRT-PCR analyses of WT1 expression in day 15 cultures generated from untreated cells (control) or cells treated with either BMP4 (10 ng/ml) or DM (4 μM) in combination with the indicated amounts of IWP2. Error bars represent standard deviation from the mean of the values from three independent experiments (N=3); *P≤0.05, **P≤0.01 when compared to no Wnt treatment (see FIGS. 9a and 9b) in the context of the specific BMP treatment. Media consisting of StemPro-34 (Life Technologies) supplemented with […] penicillin/streptomycin, 2 mM L-glutamine, 1 mM ascorbic acid, and 4 3 10_4 M monothioglycerol (MTG) (Sigma). […] The Activin/Nodal/TGF-b and BMP inhibition experiments were carried out with SB-431542 (Tocris, Ellisville, Mo.) and dorsomorphin (Sigma), respectively. For experiments involving Wnt signaling, CHIR-99021 (Stemgent), XAV-939 (R&D), or IWP2(R&D) were used at the indicated concentrations. Cultures were maintained in a 5% CO2, 5% O2, 90% N2 environment for the first 10-12 days and were then transferred into a 5% CO2 air environment for the remainder of the culture period.

hESC-derived mesoderm [2] = experiment: qRT-PCR and immunostaining of myocardial and epicardial markers (WT1, TBX18) after treatment of mesoderm; type: cell-based, human; settings: for WT1 expression in BMP4-treated cells: higher concentrations of DKK1 or small molecule antagonists, CHIR
Text: Values are relative to the housekeeping gene TBP. Error bars represent standard deviation from the mean of the values from three independent experiments (N=3); *P≤0.05, **P≤0.01 when compared to no treatment. FIG. 5. […] Error bars represent standard deviation from the mean of the values from three independent experiments (N=3); *P≤0.05, **P≤0.01 when compared to the ‘no Wnt treatment’ (NT) control in context of the indicated manipulation of the BMP pathway. (b) qRT-PCR-based analyses of WT1 expression on day 15 cultures generated from untreated cells (control) or cells treated with either BMP4 (10 ng/ml) or DM (4 μM) in combination with the indicated amounts of DKK or CHIR. Values are relative to the housekeeping gene TBP. Error bars represent standard deviation from the mean of the values from three independent experiments (N=3); *P≤0.05, **P≤0.01 when compared to the ‘no Wnt treatment’ (NT) control in the context of the indicated manipulation of the BMP pathway. (c) Flow cytometry analyses showing percent cTnT+ cells and qRT-PCR analyses for WT1 expression in day 15 cultures generated from untreated cells (control) or cells treated with either BMP4 (10 ng/ml) or DM (4 μM) in combination with the indicated amounts of XAV939 (XAV). Error bars represent standard deviation from the mean of the values from three independent experiments (N=3); *P≤0.05, **P≤0.01 when compared to no Wnt treatment (see FIGS. 9a and 9b) in the context of the specific BMP treatment. (d) Flow cytometry analyses showing percent cTnT+ cells and qRT-PCR analyses of WT1 expression in day 15 cultures generated from untreated cells (control) or cells treated with either BMP4 (10 ng/ml) or DM (4 μM) in combination with the indicated amounts of IWP2. Error bars represent standard deviation from the mean of the values from three independent experiments (N=3); *P≤0.05, **P≤0.01 when compared to no Wnt treatment (see FIGS. 9a and 9b) in the context of the specific BMP treatment. […] As a first approach to identify these cells, we analyzed them for expression of a panel of myocardial and epicardial genes over a 6-15 day time course. […] In vivo, the epicardial cells form an epithelial layer that surrounds the developing heart^18. In addition to their distinct morphology, epithelial cells in culture are characterized by their ability to form tight junctions that can be monitored by the presence of the zona occludins 1 (ZO1) protein.

[3] = titration during specification step, FIG. 3
[4] = qRT-PCR, 6-15 day time course, cells from treated mesoderm

`NC(=O)c1ccc(-c2nc(-c3ccc4c(c3)OCO4)c(-c3ccccn3)[nH]2)cc1` [SB431542, reference compound] was tested, and the “cardiomyocyte development in presence of Wnt and activin/nodal/TGFβ inhibitor” value (hESC-derived mesoderm [1]) was “cardiomyocytes routinely develop”.

`Oc1nc(-c2ccc(C(F)(F)F)cc2)nc2c1CSCC2` [XAV939, reference compound] was tested, and the “WT1 expression in BMP4-treated cells” value (hESC-derived mesoderm [2]; qRT-PCR day 15) was “decreased WT1 expression”.

In the case of `Cc1ccc2nc(NC(=O)CSc3nc4c(c(=O)n3-c3ccccc3)SCC4)sc2c1` [IWP2, reference compound], the “WT1 expression in BMP4-treated cells” value (hESC-derived mesoderm [2]; qRT-PCR day 15) is reported as “decreased WT1 expression”.

`Cc1c[nH]c(-c2cnc(NCCNc3ccc(C#N)cn3)nc2-c2ccc(Cl)cc2Cl)n1` [CHIR99021, reference compound] was tested, and the “cardiomyocyte development in DM-treated cultures” value (hESC-derived mesoderm [1]; Wnt activation in presence of dorsomorphin) was “unaffected”, the “cardiomyocyte development in the endogenous BMP control” value (hESC-derived mesoderm [1]; Wnt activation, no BMP pathway regulators) was “inhibited cardiomyocyte development” and the “WT1 expression in DM treated cultures” value (hESC-derived mesoderm [2]; qRT-PCR day 15) was “no change in WT1 expression”. For the same molecule, the “WT1 expression in the endogenous BMP population” value (hESC-derived mesoderm [2]; qRT-PCR day 15) was “increased levels” and the “WT1 expression in BMP4-treated cells” value (hESC-derived mesoderm [2]; qRT-PCR day 15) was “did not impact WT1 expression”.

B1: noggin (protein, UniProt Q13253 28-232, looked up)
Noggin: QHYLHIRPAPSDNLPLVDLIEHPDPIFDPKEKDLNETLLRSLLGGHYDPGFMATSPPEDRPGGGGGAAGGAEDLAELDQLLRQRPSGAMPSEIKGLEFSEGLAQGKKQRLSKKLRRKLQMWLWSQTFCPVLYAWNDLGSRFWPRYVKVGSCFSKRSCSVPEGMVCKPSKSVHLTVLRWRCQRRGGQRCGWIPIQYPIISECKCSC
For B1, the “cardiomyocyte development / specification” value (hESC-derived mesoderm [1]) was “completely blocked cardiomyocyte development; also recorded: inhibited cardiomyocyte specification”, the “levels of KDR (mesoderm development)” value (hESC-derived mesoderm [1]; flow cytometry after treatment of day 4 mesoderm) was “decrease the levels of KDR to some extent” and the “low levels at which cardiomyocyte development is achieved” value (hESC-derived mesoderm [1]; [3]) was 12.5 to 200 ng/mL. The “expression of panel of myocardial and epicardial genes” value (hESC-derived mesoderm [2]; qRT-PCR, 6-15 day time course) was “did not express significant levels of any of these genes”.

B2: Bone Morphogenetic Protein 4 (protein, UniProt P12644 293-408, looked up)
Bone morphogenetic protein 4: SPKHHSQRARKKNKNCRRHSLYVDFSDVGWNDWIVAPPGYQAFYCHGDCPFPLADHLNSTNHAIVQTLVNSVNSSIPKACCVPTELSAISMLYLDEYDKVVLKNYQEMVVEGCGCR
notes: Bone Morphogenetic Protein 4, human BMP4 (R&D Systems)
In the case of B2, the “cardiomyocyte development / specification” value (hESC-derived mesoderm [1]) is reported as “completely blocked cardiomyocyte development”, the “concentrations that inhibited cardiomyocyte specification” value (hESC-derived mesoderm [1]; [3]) is reported as ≥ 0.63 ng/mL and the “low levels at which cardiomyocyte development is achieved” value (hESC-derived mesoderm [1]; [3]) is reported as 0.31 ng/mL. The “WT1 (nuclear) by immunostaining” value (hESC-derived mesoderm [2]; day 15 of culture) was “detected only in cells induced with BMP4”, the TBX18 expression (hESC-derived mesoderm [2]; [4]) was “predominantly” and the WT1 expression (hESC-derived mesoderm [2]; [4]) was “exclusively”. The “BNC1 and ANXA8 expression” value (hESC-derived mesoderm [2]; qRT-PCR, cells from treated mesoderm) was “highly expressed”.

B3: DKK1 (protein, UniProt O94907 32-266, looked up)
Dickkopf-related protein 1: TLNSVLNSNAIKNLPPPLGGAAGHPGSAVSAAPGILYPGGNKYQTIDNYQPYPCAEDEECGTDEYCASPTRGGDAGVQICLACRKRRKRCMRHAMCCPGNYCKNGICVSSDQNHFRGEIEETITESFGNDHSTLDGYSRRTTLSSKMYHTKGQEGSVCLRSSDCASGLCCARHFWSKICKPVLKEGQVCTKHRRKGSHGLEIFQRCYCGEGLSCRIQKDHHQASNSSRLHTCQRH
For B3, the “cardiomyocyte development in presence of Wnt and activin/nodal/TGFβ inhibitor” value (hESC-derived mesoderm [1]) was “cardiomyocytes routinely develop”.
